# Laboratory results published in patent US20260116991A1 (HAINAN SIMCERE ZAIMING PHARMACEUTICAL, published 2026).
# Positions count from the first letter of the chain named.
# B1: hAb006LH1L1b (antibody, human IgG1, V domains shown)
# VH: EVQLVQSGAEVKKPGSSVKVSCKASGYTFSDYEIHWVRQAPGQGLEWMGAIDPKTGNTAYNQKFMGRVTITADKSTSTAYMELSSLRSEDTAVYYCTRYFSFAYWGQGTLVTVSS
# VL: DIVMTQTPLSLPVTPGEPASISCRSSQTFVHSNANTYLQWYLQKPGQSPQLLIYKVSNRFSGVPDRFSGSGSGTDFTLKISRVEAEDVGVYYCFQGSHVPYTFGQGTKLEIK
# notes: Humanized F3.38.7; VH H1 + VL L1b; expressed as human IgG1
# B2: hAb006LH2L1b (antibody, human IgG1, V domains shown)
# VH: B1 VH with S30T
# VL: B1 VL
# notes: Humanized F3.38.7; VH H2 + VL L1b; expressed as human IgG1
# B3: hAb007LH1L1b (antibody, human IgG1, V domains shown)
# VH: B1 VH with I34M, A50T, K54E, M65K, Y99P, F100Y, F102L, A103T
# VL: B1 VL with T28S, A34R, N35D
# notes: Humanized F3.81.19; VH H1 + VL L1b; expressed as human IgG1
# B4: hAb006LH3L1b (antibody, human IgG1, V domains shown)
# VH: B1 VH with S30T, I70L
# VL: B1 VL
# notes: Humanized F3.38.7; VH H3 + VL L1b; expressed as human IgG1
# B5: hAb006LH3L1d (antibody, human IgG1, V domains shown)
# VH: B1 VH with S30T, I70L
# VL: B1 VL with A34S
# notes: Humanized F3.38.7; VH H3 + VL L1d; expressed as human IgG1
# B6: hAb006LH3L1e (antibody, human IgG1, V domains shown)
# VH: B1 VH with S30T, I70L
# VL: B1 VL with A34V
# notes: Humanized F3.38.7; VH H3 + VL L1e; expressed as human IgG1
# B7: hAb006LH3L1c (antibody, human IgG1, V domains shown)
# VH: B1 VH with S30T, I70L
# VL: B1 VL with A34R
# notes: Humanized F3.38.7; VH H3 + VL L1c; expressed as human IgG1
# B8: hAb006LH3L1 (antibody, human IgG1, V domains shown)
# VH: B1 VH with S30T, I70L
# VL: B1 VL with A34G
# notes: Humanized F3.38.7; VH H3 + VL L1; expressed as human IgG1
# B9: hAb007LH1L1 (antibody, human IgG1, V domains shown)
# VH: B1 VH with I34M, A50T, K54E, M65K, Y99P, F100Y, F102L, A103T
# VL: B1 VL with T28S, A34G, N35D
# notes: Humanized F3.81.19; VH H1 + VL L1; expressed as human IgG1
# B10: hAb007LH1L1c (antibody, human IgG1, V domains shown)
# VH: B1 VH with I34M, A50T, K54E, M65K, Y99P, F100Y, F102L, A103T
# VL: B1 VL with T28S, N35D
# notes: Humanized F3.81.19; VH H1 + VL L1c; expressed as human IgG1
# B11: hAb006LH2L1 (antibody, human IgG1, V domains shown)
# VH: B1 VH with S30T
# VL: B1 VL with A34G
# notes: Humanized F3.38.7; VH H2 + VL L1; expressed as human IgG1
# Target: T1, human GPC3 on CHO-K1-human GPC3 cells (CHOK1-hGPC3.2B5) (human, UniProt P51654 25-554)
# T1 construct: whole, on cells
# Experiment: FACS, CHOK1-hGPC3.2B5 cells;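 also: flow cytometry of humanized antibodies binding to the cells over one hour in the cold, read as cell mean fluorescence intensity, with EC50 obtained by curve fitting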
Binder,EC50 [nM],Max MFI [MFI]
B1,1.1,4630
B2,1.14,4790
B3,6.47,6070
B4,0.97,4670
B5,1.98,17600
B6,2.06,15800
B7,1.16,18000
B8,0.929,4920
B9,2.02,6440
B10,4.61,18200
B11,1.02,4880

# Target: biotinylated labeled human GPC3 protein (produced in-house) (human, UniProt P51654 25-559, limits assumed, biotinylated (Dojindo, Cat. No. LK03); sites not stated)
# Experiment: ELISA, biotinylated human GPC3 protein
Binder,OD450 at 0.0008 nM [OD450],OD450 at 0.004 nM [OD450],OD450 at 0.02 nM [OD450],OD450 at 0.11 nM [OD450],OD450 at 0.53 nM [OD450],OD450 at 2.67 nM [OD450],OD450 at 13.33 nM [OD450],OD450 at 66.66 nM [OD450],OD450 at 0.0004 nM [OD450],OD450 at 0.002 nM [OD450]
B1,0.15,0.288,0.841,1.71,2.4,2.46,2.47,2.57,,
B2,0.16,0.316,0.872,1.91,2.41,2.55,2.4,2.37,,
B3,0.099,0.137,0.341,1.07,1.98,2.34,2.38,2.46,,
B4,0.155,0.309,0.878,1.93,2.36,2.42,2.36,2.5,,
B5,,,,,,,,,0.058,0.096
B6,,,,,,,,,0.06,0.085
B7,,,,,,,,,0.071,0.102
B8,0.154,0.287,0.819,1.65,2.06,2.2,2.25,2.33,,
B9,0.109,0.17,0.496,1.36,2.14,2.42,2.38,2.43,,
B10,,,,,,,,,0.052,0.064
B11,0.192,0.629,1,1.83,2.36,2.4,2.29,2.28,,

# Same assay, conditions: not given
Binder,OD450 at 0.011 nM [OD450],OD450 at 0.056 nM [OD450],OD450 at 0.28 nM [OD450],OD450 at 1.39 nM [OD450],OD450 at 6.94 nM [OD450],OD450 at 34.72 nM [OD450]
B5,0.228,0.59,1.11,1.61,1.33,1.45
B6,0.187,0.592,1.23,1.36,1.44,1.32
B7,0.265,0.756,1.3,1.46,1.44,1.36
B10,0.098,0.25,0.718,1.09,1.45,1.29
